Laboratory results as given in patent US20100150906A1 (AC IMMUNE S A, published 2010).
No end group written: not given here.

What was measured:
amyloid beta 1-42 fibers [1] = target: T1, amyloid beta 1-42 fibers (UniProt P05067 672-713); test: SPR (Biacore X), fibrillar Aβ1-42 on CM5 chip, average of experiments
T1 construct: domain: amyloid beta 1-42; Many copies per fiber; also called Aβ1-42 fibers; fibrillar Aβ1-42
Description: The interactions between AC immune's lead antibody mACI-01-Ab7 C2 (mC2) with amyloid peptide Aβ₁₋₄₂ was studies using surface plasmon resonance. The binding of the mouse antibody mACI-01-Ab7 C2 to either monomers or fibers of Aβ₁₋₄₂ were determined.
All SPR experiments were carried out on a Biacore X instrument (Biacore AB). Reagents for immobilization (EDC, NHS and ethanolamine), sensor chips CM5 and SA as well as running and sample buffer HBS-EP were purchased from Biacore AB. Sodium acetate (10 mM, pH 5.0) was used as coupling buffer to increase coupling yield. Fibrillar Aβ₁₋₄₂ (BAchem) was prepared by adding PBS buffer to Aβ₁₋₄₂ to a final concentration of 3 mg/ml and leaving the vials at 37° C. for 7 days. Fibrillar Aβ₁₋₄₂ was coupled to a CM5 sensor chip containing a surface-bound carboxymethyl dextran matrix. Biotinylated monomeric Aβ₁₋₄₂ (Bachem) was coupled to a Sensor chip SA consisting of carboxymethyl dextran matrix with covalently attached Streptavidin. Typically four or five concentrations of mAb were assayed by serial dilutions using running buffer. Injections were performed starting from the lowest concentration and were passed over both fc 1 and 2 at a flow rate of 30 μL'min for 3 min. Flow cell 2 was underivatised and responses were subtracted from fc 1 to correct for instrument noise and bulk refractive changes. After injection was finished, the surfaces were washed immediately with running buffer for 5 min. To remove remaining bound antibody from the Aβ₁₋₄₂ fibrils, surface regeneration was performed by injecting pulses of 10 mM NaOH. Kinetic analysis was performed using algorithms for numerical integration and global analysis using BIAevaluation 3.0. The curves obtained for injections of analyte at different concentrations were overlaid and the baselines adjusted to zero. For curve fitting, all data were fit simultaneously to a 1:1 homogeneous complex.

amyloid beta 1-42 fibers [2] = target: T1, amyloid beta 1-42 fibers; test: ELISA on coated amyloid (55 µg/ml); mC2 at 0.156 ug/ml
Description: (§1) In order to evaluate the specificity of mC2 to different stages of polymerized amyloid protein, monomeric, polymeric soluble and fibrillic amyloid, an ELISA coated with these different stages of polymeric beta-amyloid was performed (FIG. 9). Monomers were prepared according to a modified method published by (Klein, 2002), soluble polymeric amyloid beta according to (Barghorn et al., 2005), whereas fibers were performed by incubation of amyloid (Bachem, Switzerland) with a final concentration of 1 μg/μl in Tris/HCl pH 7.4 at 37° C. for 5 days followed by a centrifugation step (10,000 rpm for 5 minutes). Then amyloid polymers were coated on an ELISA plates with a final concentration of 55 μg/ml and binding affinity ELISA by using an anti-mouse IgG monoclonal antibody (Jackson) labelled with alkaline phosphate was performed.

[3] = target: T2, amyloid beta 1-42 monomers (UniProt P05067 672-713); test: as above
T2 construct: domain: amyloid beta 1-42; also called Aβ1-42 monomers; amyloid monomers
T2 sequence (P05067 672-713 limits assumed): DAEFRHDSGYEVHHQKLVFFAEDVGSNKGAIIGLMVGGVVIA
Description: as §1

[4] = target: T3, soluble polymeric amyloid beta (oligomers) (UniProt P05067 672-713); test: as above
T3 construct: domain: amyloid beta 1-42; also called amyloid oligomers; Abeta oligomer
T3 sequence (P05067 672-713 limits assumed): as above
Description: as §1

[5] = target: T4, peptide p14-22 A22 of the third library (E22 to alanine) (also: biotinylated, position not given here); test: ELISA on third peptide library, antibody at 10 µg/ml
T4 peptide: HQKLVFFAA
Description: (§2) Epitope mapping of the monoclonal antibody mACI-01-Ab7 C2 was performed by ELISA using three different peptide libraries. One library comprises a total of 33 biotinylated peptides covering the complete amino acid (aa) sequence of Aβ1-42 (produced by Mimotopes and purchased from ANAWA Trading SA), the second library contains biotinylated peptides using peptide 12 (aa12-20 of Aβ) from the first peptide library and substituting each amino acid in the sequence by an alanine (see […] below), and the third library contains biotinylated peptides 13, 14, or 15 (aa 13-21, 14-22 or 15-23 of Aβ) and substituting in each case the last amino acids to an alanine or to a glycine for aa 21 which is already an alanine (see table 5 below). A biotinylated complete Aβ1-42 peptide was used as positive control (Bachem). Epitope mapping was done according to the manufacturer's (Mimotopes) instructions. Briefly, Streptavidin coated plates (NUNC) were blocked with 0.1% BSA in PBS overnight at 4° C. After washing with PBS-0.05% Tween 20, plates were coated for 1 hour at RT with the different peptides from the library, diluted in 0.1% BSA, 0.1% Sodium Azide in PBS to a final concentration of 10 μM. After washing, plates were incubated for 1 hour at RT with the mACI-01-Ab7 C2 antibody or an isotype control mouse IgG2b antibody, diluted to 10 μg/ml in 2% BSA, 0.1% Sodium Azide in PBS. Plates were washed again and incubated with alkaline phosphatase conjugated goat anti mouse IgG for 1 h at RT.

[6] = target: T5, peptide p15-23 A23 of the third library (D23 to alanine) (also: biotinylated, position not given here); test: as above
T5 peptide: QKLVFFAEA
Description: as §2

[7] = target: T6, peptide p13-21 G21 of the third library (A21 to glycine) (also: biotinylated, position not given here); test: as above
T6 peptide: HHQKLVFFG
Description: as §2

[8] = target: peptide A18 of the second library (aa 12-20, V18 to alanine) (biotinylated (position not given)); test: ELISA on alanine-substituted biotinylated peptides, antibody at 10 µg/ml
Description: as §2, with “Plates were washed again and incubated with alkaline phosphatase conjugated goat anti mouse IgG for 1 h at RT.” left out

[9] = target: T7, peptide A15 of the second library (aa 12-20, Q15 to alanine) (also: biotinylated, position not given here); test: as above
T7 peptide: VHHAKLVFF
Description: as §2, with “Plates were washed again and incubated with alkaline phosphatase conjugated goat anti mouse IgG for 1 h at RT.” left out

amyloid beta 1-42 fibers [10] = target: T1, amyloid beta 1-42 fibers; test: ELISA on coated amyloid (55 µg/ml); mC2 at 0.625 ug/ml
Description: as §1

[11] = target: T2, amyloid beta 1-42 monomers; test: as above
Description: as §1

[12] = target: T3, soluble polymeric amyloid beta …; test: as above
Description: as §1

T1 sequence (P05067 672-713 limits assumed): as above

B1: mouse monoclonal antibody ACI-01-Ab7C2 (antibody, V domains shown)
VH: EVQLVESGGGLVQPGGSLKLSCAASGFTFSSYGMSWVRQTPDKRLELVASINSNGGSTYYPDSVKGRFTISRDNAKNTLYLQMSSLKSEDTAMYYCASGDYWGQGSTLTVSS
VL: DVVMTQTPLSLPVSLGDQASISCRSSQSLVYSNGDTYLHWYLQKPGQSPKLLIYKVSNRFSGVPDRFSGSGSGTDFTLKISRVEAEDLGVYFCSQSTHVPWTFGGGTKLEIK
notes: also called mC2; mACI-01-Ab7 C2
- Kd (amyloid beta 1-42 fibers [1]): 35 nM
- koff (amyloid beta 1-42 fibers [1]): 0.0011 s⁻¹
- kon (amyloid beta 1-42 fibers [1]): 38000 M⁻¹ s⁻¹
- O.D (amyloid beta 1-42 fibers [2]): 0.631 O.D
- O.D [3]: 0.397 O.D
- O.D [4]: 1.04 O.D
- binding result [5]: binds
- binding result [6]: binds
- binding result [7]: binds
- binding result [8]: binds
- binding result [9]: binds
- O.D (amyloid beta 1-42 fibers [10]): 1.62 O.D
- O.D [11]: 1.16 O.D
- O.D [12]: 2.81 O.D
